Test results reported in article PMC12562601.

How the values were obtained:
[1] = target: high-sensitive (HS) (α4)2(β2)3 nicotinic acetylcholine receptor (human) (UniProt P43681)
[2] = target: low-sensitive (LS) (α4)3(β2)2 nicotinic acetylcholine receptor (human) (UniProt P43681)
[3] = target: α3β2 nicotinic acetylcholine receptor (human) (UniProt P32297)
UniProt P32297, sequence (P32297 32-505, chain 1 of 2): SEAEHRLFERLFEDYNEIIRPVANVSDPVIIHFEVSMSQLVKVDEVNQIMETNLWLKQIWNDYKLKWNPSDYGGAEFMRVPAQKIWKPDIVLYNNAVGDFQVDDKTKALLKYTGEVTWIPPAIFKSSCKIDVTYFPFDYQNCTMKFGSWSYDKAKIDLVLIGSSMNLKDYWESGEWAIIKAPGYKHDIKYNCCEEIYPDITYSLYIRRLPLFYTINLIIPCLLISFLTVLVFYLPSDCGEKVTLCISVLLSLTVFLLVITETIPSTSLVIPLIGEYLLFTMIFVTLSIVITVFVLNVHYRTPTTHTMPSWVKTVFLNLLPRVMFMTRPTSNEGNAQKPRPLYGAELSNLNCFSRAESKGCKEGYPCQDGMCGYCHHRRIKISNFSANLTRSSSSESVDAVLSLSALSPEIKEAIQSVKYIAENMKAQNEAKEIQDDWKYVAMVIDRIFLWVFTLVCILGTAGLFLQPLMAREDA
UniProt P32297, sequence (P17787 26-502, chain 2 of 2, further chain): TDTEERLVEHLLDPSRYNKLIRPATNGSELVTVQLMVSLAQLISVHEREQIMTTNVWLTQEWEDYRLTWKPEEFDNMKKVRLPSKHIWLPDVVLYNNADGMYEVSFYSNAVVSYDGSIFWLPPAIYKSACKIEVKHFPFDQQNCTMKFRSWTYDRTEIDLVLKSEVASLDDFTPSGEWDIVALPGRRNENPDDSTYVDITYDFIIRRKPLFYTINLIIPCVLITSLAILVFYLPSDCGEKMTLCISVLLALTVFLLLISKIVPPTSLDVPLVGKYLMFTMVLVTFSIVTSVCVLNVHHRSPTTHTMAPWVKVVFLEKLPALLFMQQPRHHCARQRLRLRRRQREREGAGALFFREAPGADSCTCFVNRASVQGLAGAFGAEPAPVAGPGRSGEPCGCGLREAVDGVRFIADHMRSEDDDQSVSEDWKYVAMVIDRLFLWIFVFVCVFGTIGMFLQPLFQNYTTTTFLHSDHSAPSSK

- Maximal inhibition of ACh-evoked currents, % (single level fitted for all three datasets), two-electrode voltage clamp in X. laevis oocytes [1]: 31%
- Maximal inhibition of ACh-evoked currents, % (single level fitted for all three datasets), two-electrode voltage clamp in X. laevis oocytes [2]: 31%
- Maximal inhibition of ACh-evoked currents, % (single level fitted for all three datasets), two-electrode voltage clamp in X. laevis oocytes [3]: 31%
Substance: water-soluble recombinant analog of human prostate stem cell antigen (ws-PSCA) (domain or fragment)
